Reference: patent publication US20030114379A1

Target: CCR1 (human) (UniProt P32246)
Assay: cell-based or functional assay

Chain of CCR1 (human) (P32246 whole entry): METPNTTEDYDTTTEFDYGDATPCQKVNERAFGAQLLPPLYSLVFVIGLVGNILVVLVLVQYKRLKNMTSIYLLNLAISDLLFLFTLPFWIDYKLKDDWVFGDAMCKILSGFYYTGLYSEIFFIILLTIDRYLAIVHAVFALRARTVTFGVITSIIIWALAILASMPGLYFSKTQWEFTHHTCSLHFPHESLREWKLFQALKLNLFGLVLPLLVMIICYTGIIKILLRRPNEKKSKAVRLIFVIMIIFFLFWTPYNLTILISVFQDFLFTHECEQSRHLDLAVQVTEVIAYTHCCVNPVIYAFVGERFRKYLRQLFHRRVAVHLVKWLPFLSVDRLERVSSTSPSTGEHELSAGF

MPIF-1 wild type (mature MPIF-1 secreted from a baculovirus expression system) (from UniProt P55773 22-120) (ligand)
Ca2+ mobilization (ng/mL): minimum concentration required to mobilize calcium in human monocytes and/or THP-1 cells; MPIF-1/HG00300-B5: 1000 ng/mL
